Measured values reported in paper doi:10.1101/798371 (bioRxiv, 2019).
Values joined by “and” are separate entries in the source; they are usually repeats but may differ in a detail not shown here. Identical values can stand only once. Like-named read-outs stand apart in the source and are kept apart here. One block for each binder: values may come before it.

B1: Tom22 (natural protein, S. cerevisiae, UniProt P49334 1-152, looked up)
chain: MVELTEIKDDVVQLDEPQFSRNQAIVEEKASATNNDVVDDEDDSDSDFEDEFDENETLLDRIVALKDIVPPGKRQTISNFFGFTSSFVRNAFTKSGNLAWTLTTTALLLGVPLSLSILAEQQLIEMEKTFDLQSDANNILAQGEKDAAATAN
B4: Tom40 (natural protein, S. cerevisiae, UniProt P23644 1-387, looked up)
chain: MSAPTPLAEASQIPTIPALSPLTAKQSKGNFFSSNPISSFVVDTYKQLHSHRQSLELVNPGTVENLNKEVSRDVFLSQYFFTGLRADLNKAFSMNPAFQTSHTFSIGSQALPKYAFSALFANDNLFAQGNIDNDLSVSGRLNYGWDKKNISKVNLQISDGQPTMCQLEQDYQASDFSVNVKTLNPSFSEKGEFTGVAVASFLQSVTPQLALGLETLYSRTDGSAPGDAGVSYLTRYVSKKQDWIFSGQLQANGALIASLWRKVAQNVEAGIETTLQAGMVPITDPLMGTPIGIQPTVEGSTTIGAKYEYRQSVYRGTLDSNGKVACFLERKVLPTLSVLFCGEIDHFKNDTKIGCGLQFETAGNQELLMLQQGLDADGNPLQALPQL

Key:
Tom40 [1] = target: B4; assay: cryo-EM structure
Tom40 [2] = target: B4; assay: cryo-EM structure; remark: listed apart in the source
cryo-EM structure [3] = target: the molecule itself; assay: cryo-EM structure
Tom22 = target: B1; assay: cryo-EM structure
cryo-EM structure [4] = target: the molecule itself; assay: cryo-EM structure; remark: listed apart in the source
SEC = target: the molecule itself; assay: SEC

Binder: B1
- binding result (Tom40 [1]): binds

Binder: MFGLPQQEVSEEEKRAHQEQTEKTLKQAAYVAAFLWVSPMIWHLVKKQWK (natural protein, S. cerevisiae, UniProt P80967 1-50, looked up) [Tom5]
- binding result (Tom40 [2]): binds
- binding result (Tom22): binds

Binder: B4
- binding result (cryo-EM structure [4]): binds

B5: core TOM complex (monomeric unit: Tom40, Tom22, Tom5, Tom6, Tom7) (complex, S. cerevisiae)
chain 1: MSAPTPLAEASQIPTIPALSPLTAKQSKGNFFSSNPISSFVVDTYKQLHSHRQSLELVNPGTVENLNKEVSRDVFLSQYFFTGLRADLNKAFSMNPAFQTSHTFSIGSQALPKYAFSALFANDNLFAQGNIDNDLSVSGRLNYGWDKKNISKVNLQISDGQPTMCQLEQDYQASDFSVNVKTLNPSFSEKGEFTGVAVASFLQSVTPQLALGLETLYSRTDGSAPGDAGVSYLTRYVSKKQDWIFSGQLQANGALIASLWRKVAQNVEAGIETTLQAGMVPITDPLMGTPIGIQPTVEGSTTIGAKYEYRQSVYRGTLDSNGKVACFLERKVLPTLSVLFCGEIDHFKNDTKIGCGLQFETAGNQELLMLQQGLDADGNPLQALPQL
chain 2: MVELTEIKDDVVQLDEPQFSRNQAIVEEKASATNNDVVDDEDDSDSDFEDEFDENETLLDRIVALKDIVPPGKRQTISNFFGFTSSFVRNAFTKSGNLAWTLTTTALLLGVPLSLSILAEQQLIEMEKTFDLQSDANNILAQGEKDAAATAN
chain 3: MFGLPQQEVSEEEKRAHQEQTEKTLKQAAYVAAFLWVSPMIWHLVKKQWK
chain 4: MDGMFAMPGAAAGAASPQQPKSRFQAFKESPLYTIALNGAFFVAGVAFIQSPLMDMLAPQL
chain 5: MSFLPSFILSDESKERISKILTLTHNVAHYGWIPFVLYLGWAHTSNRPNFLNLLSPLPSV
- stoichiometry N (SEC): 2
- stoichiometry N (cryo-EM structure [3]): 4 and 3

Continued, in another order:

- binding result (Tom40 [2]): binds
B2: Tom7 (natural protein, S. cerevisiae, UniProt P53507 1-60, looked up)
chain: MSFLPSFILSDESKERISKILTLTHNVAHYGWIPFVLYLGWAHTSNRPNFLNLLSPLPSV

- binding result (Tom40 [2]): binds
B3: Tom6 (natural protein, S. cerevisiae, UniProt P33448 1-61, looked up)
chain: MDGMFAMPGAAAGAASPQQPKSRFQAFKESPLYTIALNGAFFVAGVAFIQSPLMDMLAPQL
- binding result (cryo-EM structure [3]): binds
